# Experimental data: PMC8725004, “Crystal structures of FolM alternative dihydrofolate reductase 1 from Brucella suis and Brucella canis” (Acta Crystallographica. Section F, Structural Biology …, 2022)
# B1: FolM alternative dihydrofolate reductase 1 from Brucella canis (enzyme)
# chain: MVLNDPEARMVANCPVLVTGGARRIGKAIVEDLASHGFPVAIHCNRSLDEGEAIANRINDSGGNACVVQADLEGDVRGLVKQASDRIGPIRLLVNNASLFQEDKVGALDMALWDRHFAVHLKTPVILAEDMRKALPEDQDGLVVNIIDQRVWKLNPQFFSYTLSKTALWNATRTLAQALAPRIRVNAIAPGPTLPSERQRPEDFERQVSKLPLQRAPELPEFGRTVRYFWENRSITGQMIALDGGQHLAWETPDIAELPNK
# notes: also called BcFolM; His-BcFolM
# B2: FolM alternative dihydrofolate reductase 1 from Brucella suis (enzyme)
# chain: MLNDPEARMVANCPVLVTGGARRIGKAIVEDLASHGFPVAIHCNRSLDEGEAIANRINDSGGNACVVQADLEGDVRGLVKQASDRIGPIRLLVNNASLFQEDKVGALDMALWDRHFAVHLKTPVILAEDMRKALPEDQDGLVVNIIDQRVWKLNPQFFSYTLSKSALWNATRTLAQALAPRIRVNAIAPGPTLPSERQRPEDFERQVSKLPLQRAPELPEFGRTVRYFWENRSITGQMIALDGGQHLAWETPDIAGITE
# notes: also called BsFolM; His-BsFolM
# Molecular target: the molecule itself
# Assay: crystal structure
protein,measurement,value
B1,stoichiometry N,4
B2,stoichiometry N,4
